Test results as given in the supplement of paper PMC10567573.

B1: PRAME (parent)
chain: KKLKIFAMPMQDIKMILKMVQLDS
B2: C1orf137 (parent)
chain: LPQETNLTLKVCKPQAPQKLDPTL

Variants of: B1
Test: protein stability index of a GFP-peptide fusion (GPS, HEK-293T) (PSI 1-6); higher = more stable
Conditions: c terminus: a fixed tail appended
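Further: lentivirally expressed fusions sorted by FACS into six bins by GFP to DsRed ratio, PSI derived from sequencing read proportions per bin multiplied by bin number.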

Row | Variant | protein stability index
1 | KKLKIFAMPMQDIKTILKMVQLDS [M15T] | 2.15
2 | KKLKIFAMPMQDIKVILKMVQLDS [M15V] | 2.85
3 | KKLKIFAMPMQDIKRILKMVQLDS [M15R] | 2.25
4 | KKLKIFQMPMQDIKMILKMVQLDS [A7Q] | 2
5 | KKLKIFDMPMQDIKMILKMVQLDS [A7D] | 3.87
6 | KKLKIFARPMQDIKMILKMVQLDS [M8R] | 3.05
7 | KKLKIFAWPMQDIKMILKMVQLDS [M8W] | 4.52
8 | KKLKIFALPMQDIKMILKMVQLDS [M8L] | 2.91
9 | KKLKIFAMPMQDIKMILKMQQLDS [V20Q] | 2.9
10 | KKLKMFAMPMQDIKMILKMVQLDS [I5M] | 3.17
11 | KKLKRFAMPMQDIKMILKMVQLDS [I5R] | 2.43
12 | KKLKIFAMPMQDIKMILKMVWLDS [Q21W] | 1.98
13 | KKLKIFAMPMQDIKMILKMVILDS [Q21I] | 2.69
14 | KKLKIFAMPMQWIKMILKMVQLDS [D12W] | 3.37
15 | KKLKIFAMPMQAIKMILKMVQLDS [D12A] | 2.14
16 | KKLKIFAMPMQEIKMILKMVQLDS [D12E] | 2.5
17 | KKLKIFAMFMQDIKMILKMVQLDS [P9F] | 2.42
18 | KKLKIFAMIMQDIKMILKMVQLDS [P9I] | 2.11
19 | KKLKIFAMVMQDIKMILKMVQLDS [P9V] | 2.94

Row | Variant | protein stability index
20 | KKLKIFAMPMQDIKMILKMVQLLS [D23L] | 3.12
21 | KKLKIFAMPMQDIRMILKMVQLDS [K14R] | 1.65
22 | KKLKIFAMPMQDIKMILKTVQLDS [M19T] | 3.38
23 | KKLKIFAMPMQDIKMILKHVQLDS [M19H] | 2.59
24 | KKIKIFAMPMQDIKMILKMVQLDS [L3I] | 1.63
25 | KKLKIFAMPMQDIKMISKMVQLDS [L17S] | 2.1
26 | KKLKIFAMPMQDIKMIAKMVQLDS [L17A] | 2.66
27 | KKLKILAMPMQDIKMILKMVQLDS [F6L] | 3.92
28 | KKLKIFAMPMQDIKMPLKMVQLDS [I16P] | 1.63
29 | CKLKIFAMPMQDIKMILKMVQLDS [K1C] | 2.92
30 | KKLKIFAMPDQDIKMILKMVQLDS [M10D] | 2.39
31 | KKLKIFAMPMQDIKMILKMVQLDK [S24K] | 2.42
32 | KKLKIFAMPMQDIKMILKMVQLDN [S24N] | 2.87
33 | KKLVIFAMPMQDIKMILKMVQLDS [K4V] | 3.08
34 | KKLQIFAMPMQDIKMILKMVQLDS [K4Q] | 3.25
35 | KKLTIFAMPMQDIKMILKMVQLDS [K4T] | 3.69
36 | KHLKIFAMPMQDIKMILKMVQLDS [K2H] | 3.33
37 | KSLKIFAMPMQDIKMILKMVQLDS [K2S] | 2.94

Variants of: B2
Test: as above
Conditions: c terminus: a fixed tail appended

Row | Variant | protein stability index
38 | LPQETNLTDKVCKPQAPQKLDPTL [L9D] | 4.92
39 | LPQETNLTCKVCKPQAPQKLDPTL [L9C] | 3.91
40 | LPQETNLTAKVCKPQAPQKLDPTL [L9A] | 4.14
41 | LPQETCLTLKVCKPQAPQKLDPTL [N6C] | 3.3
42 | LPQETWLTLKVCKPQAPQKLDPTL [N6W] | 3.2
43 | LPQETELTLKVCKPQAPQKLDPTL [N6E] | 4.15
44 | LPQETVLTLKVCKPQAPQKLDPTL [N6V] | 3.29
45 | LPQETSLTLKVCKPQAPQKLDPTL [N6S] | 3.56
46 | LPQETQLTLKVCKPQAPQKLDPTL [N6Q] | 3.94
47 | LPQETMLTLKVCKPQAPQKLDPTL [N6M] | 3.22
48 | LPQETILTLKVCKPQAPQKLDPTL [N6I] | 2.42
49 | LPQETTLTLKVCKPQAPQKLDPTL [N6T] | 3.71
50 | LPQETRLTLKVCKPQAPQKLDPTL [N6R] | 3.31
51 | LPQETLLTLKVCKPQAPQKLDPTL [N6L] | 3.57
52 | LPQETYLTLKVCKPQAPQKLDPTL [N6Y] | 2.99
53 | LPQETFLTLKVCKPQAPQKLDPTL [N6F] | 3.36
54 | LPQETGLTLKVCKPQAPQKLDPTL [N6G] | 4.6
55 | LPQETALTLKVCKPQAPQKLDPTL [N6A] | 3.88
56 | LPQETDLTLKVCKPQAPQKLDPTL [N6D] | 4.38

Row | Variant | protein stability index
57 | LPQETKLTLKVCKPQAPQKLDPTL [N6K] | 3.27
58 | LPQETHLTLKVCKPQAPQKLDPTL [N6H] | 4.23
59 | MPQETNLTLKVCKPQAPQKLDPTL [L1M] | 4.04
60 | IPQETNLTLKVCKPQAPQKLDPTL [L1I] | 3.97
61 | NPQETNLTLKVCKPQAPQKLDPTL [L1N] | 3.77
62 | PPQETNLTLKVCKPQAPQKLDPTL [L1P] | 4.65
63 | APQETNLTLKVCKPQAPQKLDPTL [L1A] | 4.06
64 | FPQETNLTLKVCKPQAPQKLDPTL [L1F] | 2.79
65 | TPQETNLTLKVCKPQAPQKLDPTL [L1T] | 4.44
66 | QPQETNLTLKVCKPQAPQKLDPTL [L1Q] | 4.38
67 | WPQETNLTLKVCKPQAPQKLDPTL [L1W] | 3.98
68 | RPQETNLTLKVCKPQAPQKLDPTL [L1R] | 3.48
69 | CPQETNLTLKVCKPQAPQKLDPTL [L1C] | 4
70 | KPQETNLTLKVCKPQAPQKLDPTL [L1K] | 3.93
71 | VPQETNLTLKVCKPQAPQKLDPTL [L1V] | 4.34
72 | YPQETNLTLKVCKPQAPQKLDPTL [L1Y] | 3.04
73 | HPQETNLTLKVCKPQAPQKLDPTL [L1H] | 3.36
74 | DPQETNLTLKVCKPQAPQKLDPTL [L1D] | 4.73
75 | EPQETNLTLKVCKPQAPQKLDPTL [L1E] | 4.8

Row | Variant | protein stability index
76 | SPQETNLTLKVCKPQAPQKLDPTL [L1S] | 4.46
77 | LPQEENLTLKVCKPQAPQKLDPTL [T5E] | 4.2
78 | LPQEGNLTLKVCKPQAPQKLDPTL [T5G] | 3.75
79 | LPQEANLTLKVCKPQAPQKLDPTL [T5A] | 4.02
80 | LPQEPNLTLKVCKPQAPQKLDPTL [T5P] | 4.59
81 | LPQEQNLTLKVCKPQAPQKLDPTL [T5Q] | 4.33
82 | LPQEMNLTLKVCKPQAPQKLDPTL [T5M] | 3.58
83 | LPQEFNLTLKVCKPQAPQKLDPTL [T5F] | 2.77
84 | LPQERNLTLKVCKPQAPQKLDPTL [T5R] | 3.6
85 | LPQEINLTLKVCKPQAPQKLDPTL [T5I] | 2.6
86 | LPQECNLTLKVCKPQAPQKLDPTL [T5C] | 2.99
87 | LPQELNLTLKVCKPQAPQKLDPTL [T5L] | 2.69
88 | LPQESNLTLKVCKPQAPQKLDPTL [T5S] | 3.9
89 | LPQEHNLTLKVCKPQAPQKLDPTL [T5H] | 4
90 | LPQEKNLTLKVCKPQAPQKLDPTL [T5K] | 3.64
91 | LPQENNLTLKVCKPQAPQKLDPTL [T5N] | 3.69
92 | LPQEYNLTLKVCKPQAPQKLDPTL [T5Y] | 2.88
93 | LPQEDNLTLKVCKPQAPQKLDPTL [T5D] | 4.38
94 | LPQEVNLTLKVCKPQAPQKLDPTL [T5V] | 3.04
